Data as given in the supplement of paper PMC9732359.
± gives the uncertainty stated by the source.

Assay: protein stability index of a GFP-peptide fusion (yeast GPS) (PSI 1-4); higher = more stable; sorted into four equal gates, so the index is relative within each strain
How it was run: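 For each peptide, the protein stability index sums the read frequency in every gate after multiplying it by the gate number. Read frequencies came from plasmids that were PCR-amplified from each gate and Illumina-sequenced, with reads assigned to strains by barcodes. The gates were four equal bins of GFP/Cherry fluorescence ratio applied to mid-log yeast in leucine-free medium carrying a pooled library of tiled 17-residue yeast protein peptides fused downstream of GFP on a Cherry-expressing plasmid.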

Row | Sequence | protein stability index (doa10∆) | protein stability index (pdr5∆) | protein stability index (san1∆) | protein stability index (ubr1∆)
1 | REQASKSKKSWLNRLNN [YMR153W/NUP53] | 2.31 ± 0.11 | 2.45 ± 0.099 | 1.62 ± 0.15 | 2.92 ± 0.063
2 | RESTKALTRGEALLVVL [RPS12] | – | 3.49 ± 0.16 | – | 3.4 ± 0.045
3 | REVGTKFTTVLAKILAR [ECM29] | 1.39 ± 0.086 | 1.52 ± 0.06 | 1.88 ± 0.097 | 1.44 ± 0.05
4 | RFAPDNQVTDSSQLNKL [SIR3] | 2.9 ± 0.096 | 3.1 ± 0.11 | 2.98 ± 0.12 | 3.04 ± 0.14
5 | RFNFISKYFIIDSFFLY [YMR129W/POM152] | 1.58 ± 0.061 | 1.24 ± 0.072 | 1.31 ± 0.12 | 1.12 ± 0.059
6 | RFQDPYVAIVVDPLKSL [RRI1] | – | 2.79 ± 0.13 | 2.26 ± 0.2 | 2.69 ± 0.13
7 | RGFNNQIMQLKKICNHP [SNF2] | 3.13 ± 0.066 | 3.15 ± 0.067 | 3.07 ± 0.049 | 3.2 ± 0.06
8 | RGKDCTVVISQKKVPDK [SCL1] | 2.59 ± 0.086 | 2.83 ± 0.076 | 2.83 ± 0.074 | 2.71 ± 0.051
9 | RGRNDTLERVHLSYCSN [GRR1] | 3.01 ± 0.055 | 3.2 ± 0.068 | 2.69 ± 0.1 | 2.98 ± 0.046
10 | RHQQLLRSRLQQQQQQQ [SNF5] | 2.47 ± 0.078 | 2.54 ± 0.078 | 2.4 ± 0.12 | 2.67 ± 0.072
11 | RIFISNVSENQPWQMDT [SNF12] | 2.98 ± 0.052 | 3.17 ± 0.072 | 3.09 ± 0.04 | 3.11 ± 0.054
12 | RIGRIEDVTPVPSDSTR [RPS14A] | 2.85 ± 0.082 | 3.15 ± 0.065 | 3.26 ± 0.053 | 3.16 ± 0.052
13 | RIIREMFAYAKEHEPCI [RPT4] | 2.43 ± 0.1 | 2.65 ± 0.12 | 2.83 ± 0.11 | 2.58 ± 0.093
14 | RIKNEQSALSQIIRLFY [ISW2] | 3.08 ± 0.1 | 3.09 ± 0.1 | 2.76 ± 0.076 | 3.06 ± 0.073
15 | RIQKIISKRKEELEEEF [YIL149C/MLP2] | 3.13 ± 0.12 | 2.47 ± 0.13 | 3.02 ± 0.18 | 2.86 ± 0.13
16 | RKDLRDKLICSIDPPGC [DIS3] | 2.96 ± 0.066 | 2.91 ± 0.047 | 2.67 ± 0.055 | 3.03 ± 0.051
17 | RKEGPTIYYVDSDGTRL [PRE2] | 2.24 ± 0.048 | 1.9 ± 0.034 | 2.03 ± 0.074 | 2.32 ± 0.034
18 | RKHPGGRGMAGGQHHHR [RPL28] | 2.94 ± 0.14 | 2.6 ± 0.26 | 3.03 ± 0.1 | 3.18 ± 0.16
19 | RKHTRGDVSSGLFEKST [BRN1] | 2.81 ± 0.16 | 3.27 ± 0.1 | 2.5 ± 0.14 | –
20 | RKIEAETRNGKVKNQGA [YCS4] | 2.89 ± 0.14 | 3.43 ± 0.12 | 3.12 ± 0.12 | 3.22 ± 0.13
21 | RKIEFPSLRDRRERRLI [RPT3] | 3.31 ± 0.052 | 3.34 ± 0.086 | 2.68 ± 0.066 | 3.32 ± 0.042
22 | RKIGISIDDHPYNLNLF [RPC31] | 1.75 ± 0.043 | 2.04 ± 0.05 | 1.71 ± 0.098 | 1.9 ± 0.044
23 | RKILNFKKDLVIVLSNI [SWI1] | 2.52 ± 0.1 | 2.25 ± 0.07 | 2.11 ± 0.14 | 2.71 ± 0.087
24 | RKIVFRCSECIKILGSE [RPN4] | 1.22 ± 0.14 | 1.88 ± 0.25 | – | –
25 | RKKTEAVARLKSMNKSA [SNF2] | 1.68 ± 0.074 | 2.17 ± 0.085 | 2.23 ± 0.1 | 2.08 ± 0.065
26 | RKNYMHVKNFGFANSLT [YML031W/NDC1] | 1.18 ± 0.11 | 1.9 ± 0.11 | 2.3 ± 0.14 | 2.85 ± 0.063

Row | Sequence | protein stability index (doa10∆) | protein stability index (pdr5∆) | protein stability index (san1∆) | protein stability index (ubr1∆)
27 | RKSDQQDVLKGSSASSR [POP1] | 3.29 ± 0.12 | 3.06 ± 0.1 | 3.14 ± 0.071 | 3.31 ± 0.096
28 | RKSVFAPLNFNPIIENN [SSN2] | 2.65 ± 0.058 | 2.98 ± 0.073 | 2.75 ± 0.06 | 2.71 ± 0.069
29 | RKVVKPSSLNSDKIPYV [SRB4] | 2.74 ± 0.23 | 3.23 ± 0.13 | 3.06 ± 0.18 | 3.23 ± 0.12
30 | RLAAPHHWLLDKLSGCY [RPS4A] | 2.31 ± 0.23 | 2.2 ± 0.1 | 2.26 ± 0.14 | 2.35 ± 0.15
31 | RLEEESSWQIYSDENDP [RRP4] | – | 2.93 ± 0.16 | 2.93 ± 0.24 | 3.53 ± 0.16
32 | RLFNNVKIHSQESLLSR [SRP72] | 2.61 ± 0.076 | 2 ± 0.06 | 2.44 ± 0.085 | 2.18 ± 0.044
33 | RLGSFTRAKAKVEEMNN [RPL36A] | – | 2.61 ± 0.2 | 2.85 ± 0.19 | 2.87 ± 0.28
34 | RLLPINVNKKALGQDTE [MED11] | 2.84 ± 0.061 | 2.96 ± 0.062 | 2.89 ± 0.035 | 3.16 ± 0.052
35 | RLNFNQNSSKIVNVLSK [SWI3] | 2.56 ± 0.057 | 2.7 ± 0.051 | 3.04 ± 0.048 | 2.93 ± 0.042
36 | RLPTFLKHKSICSCVNR [RPP1] | 1.84 ± 0.086 | 2.24 ± 0.11 | 1.98 ± 0.13 | 2.83 ± 0.08
37 | RLRALQLYFQKNGAQDL [RRI2] | 1.7 ± 0.06 | 1.95 ± 0.076 | 1.95 ± 0.087 | 2.44 ± 0.044
38 | RLTVSARDAPTKISTLA [QCR2] | 3.2 ± 0.096 | 3.17 ± 0.069 | 3.04 ± 0.066 | 3.19 ± 0.055
39 | RLVIKEALVERRRAFKR [RPB4] | 3.13 ± 0.29 | 2.67 ± 0.14 | 2.8 ± 0.22 | –
40 | RLWHTLKYYQDLKNTRM [SNF5] | 1.77 ± 0.057 | 2.02 ± 0.048 | 2.01 ± 0.06 | 1.7 ± 0.051
41 | RMMGCVKKQKSARGIET [FAS2] | 1.59 ± 0.09 | 1.4 ± 0.1 | 1.36 ± 0.16 | 1.48 ± 0.064
42 | RMRLRALETENMEIRNL [GRR1] | 3.09 ± 0.069 | 3.02 ± 0.051 | 2.78 ± 0.055 | 3.04 ± 0.041
43 | RMSIKLLRLASKSTSMK [POP1] | 2.49 ± 0.043 | 2.6 ± 0.047 | 2.48 ± 0.053 | 2.56 ± 0.04
44 | RMTIRTRGRSATIRETY [RRP43] | 2.96 ± 0.057 | 2.64 ± 0.061 | 2.67 ± 0.062 | 2.2 ± 0.049
45 | RNARATRAAKIAPRPLD [RPL13A] | – | – | 3.33 ± 0.1 | –
46 | RNNHNSNTSTSKMLDAA [SNF12] | 3.01 ± 0.058 | 3.04 ± 0.044 | 3.22 ± 0.092 | 3.01 ± 0.048
47 | RNNSNNKTSNNNNVTAV [SWI1] | 2.73 ± 0.05 | 2.6 ± 0.054 | 1.74 ± 0.096 | 2.81 ± 0.044
48 | RNPARLMETLRTLRRKG [RPB2] | 2.28 ± 0.077 | 3.06 ± 0.086 | 2.47 ± 0.089 | 2.87 ± 0.13
49 | RNSFIRDMIMKRNSDKV [ITC1] | 2.84 ± 0.16 | 2.86 ± 0.14 | 2.29 ± 0.16 | 2.83 ± 0.2
50 | RNSLETKLTTCKRELAF [YIL149C/MLP2] | 2.09 ± 0.068 | 1.99 ± 0.077 | 1.88 ± 0.09 | 2.19 ± 0.053
51 | RNVVEDINQAKDFIENV [BRN1] | 3.25 ± 0.13 | 3.31 ± 0.097 | 3.24 ± 0.078 | 3.25 ± 0.072
